In publication PMC11109279, “Heliorhodopsin-mediated light-modulation of ABC transporter” (Nature Communications, 2024):
Residue numbers refer to the chain shown, from its start.

Tests used:
[1] = target: heterodimeric multidrug resistance ABC transporter OmrDE (Omithinimicrobium cerasi strain USBA17B2); assay: ITC; OcHeR injected into the Omr protein; 25 °C, 500 rpm; buffer SD; MicroCal ITC200; one site binding model (sequential binding site model for R233Q); perfect saturation was not achieved
OcHeR = target: T1, OcHeR (Ornithinimicrobium cerasi, UniProt A0A285W045); assay: UV-visible absorption spectroscopy of purified pigment; format: binding; conditions: covalent; Schiff base to K252; neutral pH
T1 construct: gene SAMN05421879_12810; purified from E. coli C43(DE3) grown with all-trans-retinal; DDM, Ni-NTA; homodimer
T1 sequence (A0A285W045 1-266): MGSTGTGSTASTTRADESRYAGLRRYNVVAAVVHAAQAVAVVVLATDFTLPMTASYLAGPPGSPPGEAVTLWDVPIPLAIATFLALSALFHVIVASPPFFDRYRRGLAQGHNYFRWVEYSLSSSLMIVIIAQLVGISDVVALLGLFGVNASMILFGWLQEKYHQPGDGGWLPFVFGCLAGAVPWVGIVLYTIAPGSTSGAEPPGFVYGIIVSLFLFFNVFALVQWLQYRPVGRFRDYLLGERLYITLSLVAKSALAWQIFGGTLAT

OmrDE [2] = target: T2, OmrDE (Ornithinimicrobium cerasi, UniProt A0A285VW85+A0A285VWG3); assay: ATP hydrolysis, colorimetric Pi (phosphomolybdate); format: biochemical; conditions: read-out: Km (mM, ATP); Mg-ATP (MgSO4:ATP 1.5:1), pH 7.0, 25 °C, 0.02% DDM; no OcHeR
T2 construct: gene SAMN05421879_12812; co-expressed heterodimer of two half-transporters; codon-optimized, E. coli C43(DE3), DDM-solubilized, Ni-NTA
Text: ATP hydrolysis, colorimetric Pi (phosphomolybdate) on OmrDE

OmrDE with OcHeR WT = target: T3, OmrDE with OcHeR WT (Ornithinimicrobium cerasi, UniProt A0A285VW85+A0A285VWG3); assay: ATP hydrolysis, colorimetric Pi (phosphomolybdate); format: biochemical; conditions: read-out: Km (mM, ATP); Mg-ATP (MgSO4:ATP 1.5:1), pH 7.0, 25 °C, 0.02% DDM; OcHeR WT 1:1, dark
T3 construct: gene SAMN05421879_12812; E. coli C43(DE3), DDM, Ni-NTA; with Heliorhodopsin
T3 sequence (A0A285VW85 1-577): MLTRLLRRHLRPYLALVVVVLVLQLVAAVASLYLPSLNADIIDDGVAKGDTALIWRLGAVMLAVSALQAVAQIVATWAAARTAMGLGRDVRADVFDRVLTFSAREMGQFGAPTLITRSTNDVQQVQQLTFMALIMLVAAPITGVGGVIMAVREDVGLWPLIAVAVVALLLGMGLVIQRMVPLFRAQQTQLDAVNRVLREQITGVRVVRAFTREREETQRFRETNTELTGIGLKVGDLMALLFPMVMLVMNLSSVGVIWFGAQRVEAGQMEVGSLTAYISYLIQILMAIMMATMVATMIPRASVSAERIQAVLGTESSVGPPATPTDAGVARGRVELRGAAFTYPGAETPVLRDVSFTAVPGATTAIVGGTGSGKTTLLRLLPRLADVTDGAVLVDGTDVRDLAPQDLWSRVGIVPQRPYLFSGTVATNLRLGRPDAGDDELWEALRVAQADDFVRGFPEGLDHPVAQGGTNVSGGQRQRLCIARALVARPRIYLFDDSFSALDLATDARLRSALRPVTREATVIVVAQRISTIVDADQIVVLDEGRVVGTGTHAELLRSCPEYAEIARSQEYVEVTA
T3 sequence (A0A285VWG3 1-661): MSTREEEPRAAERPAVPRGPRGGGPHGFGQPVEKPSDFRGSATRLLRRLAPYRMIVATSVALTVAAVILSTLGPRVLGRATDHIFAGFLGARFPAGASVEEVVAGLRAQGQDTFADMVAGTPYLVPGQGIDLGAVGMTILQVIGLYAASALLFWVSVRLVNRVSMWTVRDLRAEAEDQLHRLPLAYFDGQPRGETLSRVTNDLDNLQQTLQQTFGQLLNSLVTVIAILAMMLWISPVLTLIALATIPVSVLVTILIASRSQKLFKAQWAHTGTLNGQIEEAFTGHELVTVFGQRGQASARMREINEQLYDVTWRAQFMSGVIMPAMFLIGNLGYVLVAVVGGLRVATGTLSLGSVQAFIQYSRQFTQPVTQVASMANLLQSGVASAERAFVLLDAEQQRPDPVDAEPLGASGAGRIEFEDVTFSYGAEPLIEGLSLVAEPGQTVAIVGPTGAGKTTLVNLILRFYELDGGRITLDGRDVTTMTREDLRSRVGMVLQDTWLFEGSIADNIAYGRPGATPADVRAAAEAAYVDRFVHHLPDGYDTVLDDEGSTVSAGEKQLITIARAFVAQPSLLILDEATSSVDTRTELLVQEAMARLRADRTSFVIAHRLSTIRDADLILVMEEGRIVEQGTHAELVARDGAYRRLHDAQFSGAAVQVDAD
T3 sequence (A0A285W045 1-266 partner): T1 sequence (A0A285W045 1-266)
Text: ATP hydrolysis, colorimetric Pi (phosphomolybdate) on OmrDE with OcHeR WT

OmrDE [3] = target: T2, OmrDE; assay: ATP hydrolysis, colorimetric Pi (phosphomolybdate); format: biochemical
[4] = target: T4, Omithinimicrobium cerasi strain USBA17B2 heliorhodopsin (OcHeR) WT (Omithinimicrobium cerasi strain USBA17B2, UniProt A0A285W045 1-266, retinal Schiff base linked to K252); assay: ITC; OcHeR injected into the Omr protein; 25 °C, 500 rpm; buffer SD; MicroCal ITC200; one site binding model (sequential binding site model for R233Q); perfect saturation was not achieved; conditions: both partners purified
T4 construct: gene codon-optimized for E. coli and chemically synthesized; source: E. coli C43 (DE3), purified (DDM-solubilized membrane fraction, Ni2+-NTA agarose)
T4 sequence (looked up): T1 sequence (A0A285W045 1-266)

Glu118 (position 118, …) = assay: UV-vis; conditions: not stated for the titration. Purified protein was kept in buffer SD with 150 mM NaCl.; not stated for the titration. Purification buffer SD was 150 mM NaCl, 50 mM Tris-HCl pH 7.0, 0.02% DDM. pH was adjusted by adding HCl and NaOH.; Dark/ground state, retinal-bound, detergent-solubilised, without OmrDE
[5] = target: T5, heterodimeric multidrug resistance ABC transporter OmrDE (Omithinimicrobium cerasi strain USBA17B2, UniProt A0A285VW85 1-577; A0A285VWG3 1-661); assay: cell-based or functional assay
T5 sequence (looked up) 1: T3 sequence (A0A285VW85 1-577)
T5 sequence (looked up) 2: T3 sequence (A0A285VWG3 1-661)

**Q.** With OcHeR R233Q (natural protein) as the molecule, how does the Kd of the first binding (sequential binding site model) [1] read?
**A.** 42.9 µM

**Q.** What about the Kd of the second binding (sequential binding site model) [1] of the same molecule?
**A.** 25.3 µM

**Q.** What about the dH of the first binding (sequential binding site model) [1] of the same molecule?
**A.** 5.9 kcal/mol

**Q.** What about the dH of the second binding (sequential binding site model) [1] of the same molecule?
**A.** 38.7 kcal/mol

**Q.** For OcHeR W225A (natural protein), which Kd [1] is on record?
**A.** 16.9 µM

**Q.** And the dH [1]?
**A.** 11.8 kcal/mol

**Q.** How did the retinal attachment site (OcHeR) turn out when `CC1=C(/C=C/C(C)=C/C=C/C(C)=C/C=O)C(C)(C)CCC1` [all-trans-retinal] was run?
**A.** retinal Schiff base linked to K252 of OcHeR

**Q.** Which Km (OmrDE [2]) does the source give for `Nc1ncnc2c1ncn2[C@@H]1O[C@H](COP(=O)(O)OP(=O)(O)OP(=O)(O)O)[C@@H](O)[C@H]1O` [ATP] here?
**A.** 19.2 ± 12.3 mM

**Q.** And the Km (OmrDE with OcHeR WT)?
**A.** 10.4 ± 7 mM

**Q.** For `N=C(N)c1ccc(-c2cc3ccc(C(=N)N)cc3[nH]2)cc1` [DAPI], which IC50 (OmrDE [3]) is on record?
**A.** 47.4 µM

**Q.** Which Kd [1] does the source give for OcHeR R229Q (natural protein) here?
**A.** 5.1 µM

**Q.** And the dH [1]?
**A.** 8.6 kcal/mol

**Q.** What does the source list for OcHeR R235Q (natural protein)?
**A.** Kd [1]: 26 µM; dH [1]: 2.4 kcal/mol

B1: NBD-truncated OmrDE (OmrD^tcE^tc) (complex)
chain 1: MLTRLLRRHLRPYLALVVVVLVLQLVAAVASLYLPSLNADIIDDGVAKGDTALIWRLGAVMLAVSALQAVAQIVATWAAARTAMGLGRDVRADVFDRVLTFSAREMGQFGAPTLITRSTNDVQQVQQLTFMALIMLVAAPITGVGGVIMAVREDVGLWPLIAVAVVALLLGMGLVIQRMVPLFRAQQTQLDAVNRVLREQITGVRVVRAFTREREETQRFRETNTELTGIGLKVGDLMALLFPMVMLVMNLSSVGVIWFGAQRVEAGQMEVGSLTAYISYLIQILMAIMMATMVATMIPRASVSAERIQAVLGTESSVGPPATPTDAGVARGR
chain 2: MSTREEEPRAAERPAVPRGPRGGGPHGFGQPVEKPSDFRGSATRLLRRLAPYRMIVATSVALTVAAVILSTLGPRVLGRATDHIFAGFLGARFPAGASVEEVVAGLRAQGQDTFADMVAGTPYLVPGQGIDLGAVGMTILQVIGLYAASALLFWVSVRLVNRVSMWTVRDLRAEAEDQLHRLPLAYFDGQPRGETLSRVTNDLDNLQQTLQQTFGQLLNSLVTVIAILAMMLWISPVLTLIALATIPVSVLVTILIASRSQKLFKAQWAHTGTLNGQIEEAFTGHELVTVFGQRGQASARMREINEQLYDVTWRAQFMSGVIMPAMFLIGNLGYVLVAVVGGLRVATGTLSLGSVQAFIQYSRQFTQPVTQVASMANLLQSGVASAERAFVLLDAEQQRPDPVDAEPLGASGAGR
**Q.** With B1 as the molecule, how does the Kd [4] read?
**A.** 38.9 µM

B2: Heliorhodopsin OcHeR (Ornithinimicrobium cerasi strain USBA17B2 (spelled 'Omithinimicrobium cerasi' in the main text)) (protein)
chain: T1 sequence (A0A285W045 1-266)
**Q.** Which pKa (Glu118 (position 118, …)) does the source give for B2 here?
**A.** 2.9

B3: OcHeR R102Q (natural protein)
chain: T1 sequence (A0A285W045 1-266) with R102Q
modifications: retinal Schiff base linked to K252
**Q.** With B3 as the molecule, how does the “kcat/Km of ATP hydrolysis of purified OmrDE with OcHeR R102Q (1:1), absence of light” value [5] read?
**A.** 21.4 M^−1 S^−1

**Q.** What about the “kcat/Km of ATP hydrolysis of purified OmrDE with OcHeR R102Q (1:1), presence of light (532 nm)” value [5] of the same molecule?
**A.** 18.1 M^−1 S^−1
